Reference: publication PMC9889267

Target: MLucV (pTriEx-mTFP1(cp175)-Luciferase-Venus(cp173)), purified reporter protein (firefly) [luciferase: P08659]
Experiment: SEC-RALS; UMLucV (urea pre-aggregated MLucV), 1 µM, 300 µl on Superdex-200 increase; similar size profile up to 2,000 nM; oligomer of misfolded protomers

stoichiometry N: 12
Substance: MLucV (pTriEx-mTFP1(cp175)-Luciferase-Venus(cp173)), purified reporter protein (from UniProt P08659 1-544)
